This is an account of results in the supplement of paper PMC11316812.

± gives the standard deviation of the averaged measurements.

For series [1], the system named is MCF7. Kind of series: percentage of EdU-negative (G0-arrested) nuclei per well, 72 h; higher = more G0 arrest. To be noted: reference: sequence is the full UniProt precursor, the tested protein was the secreted form or ectodomain.
The test system of series [2] is hTERT-HMEC. The description is as above. To be noted: reference: sequence is the full UniProt precursor, the tested protein was the secreted form or ectodomain.
[3] abbreviates: protein concentration 0.0225 µM.
Setting [4] is: protein concentration 0.03125 µM.
Where [5] appears, read: protein concentration 0.3125 µM.
[6] abbreviates: protein concentration 0.0165825 µM.
[7] abbreviates: protein concentration 0.165825 µM.
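Further: secreted proteins added to cultured cells, EdU pulse at the end, nuclei found by Hoechst imaging, EdU status from nuclear versus surrounding ring intensity ratio, PBS as neutral control.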

Take “MKFSPAHYLLPLLPALVLSTRQDYEELEKQLKEVFKERSTILRQLTKTSRELDGIKVNLQSLKNDEQSAKTDVQKLLELGQKQREEMKSLQEALQNQLKETSEKAEKHQATINFLKTEVERKSKMIRDLQNENKSLKNKLLSGNKLCGIHAEESKKIQAQLKELRYGKKDLLFKAQQLTDLEQKLAVAKNELEKAALDRESQMKAMKETVQLCLTSVFRDQPPPPLSLITSNPTRMLLPPRNIASKLPDAAAKSKPQQSASGNNESSQVESTKEGNPSTTACDSQDEGRPCSMKHKESPPSNATAETEPIPQKLQMPPCSECEVKKAPEKPLTSFEGMAAREEKIL [Q86TE4]”: the “percentage of EdU-negative” value in series [1] (setting [3]) amounted to 26 ± 0.38%; in series [1] (protein concentration 0.225 µM), 30.1 ± 1.1%; in series [2] (setting [3]) it was 5.34 ± 0.34%; in series [2] (protein concentration 0.225 µM), 8.84 ± 1.3%.
As to “MKFTIVFAGLLGVFLAPALANYNINVNDDNNNAGSGQQSVSVNNEHNVANVDNNNGWDSWNSIWDYGNGFAATRLFQKKTCIVHKMNKEVMPSIQSLDALVKEKKLQGKGPGGPPPKGLMYSVNPNKVDDLSKFGKNIANMCRGIPTYMAEEMQEASLFFYSGTCYTTSVLWIVDISFCGDTVEN [Q9NS71]”, the “percentage of EdU-negative” value in series [1] (setting [4]) turned out to be 23 ± 2.2%; in series [1] (setting [5]), 25.4 ± 3.5%; in series [2] (setting [4]), 4.8 ± 0.55%; in series [2] (setting [5]), 5.56 ± 0.6%.
Regarding “MKFTTLLFLAAVAGALVYAEDASSDSTGADPAQEAGTSKPNEEISGPAEPASPPETTTTAQETSAAAVQGTAKVTSSRQELNPLKSIVEKSILLTEQALAKAGKGMHGGVPGGKQFIENGSEFAQKLLKKFSLLKPWA [Q9GZZ8]”, the “percentage of EdU-negative” value in series [1] (setting [3]) was found to be 25.6 ± 1.3%; in series [1] (protein concentration 0.225 µM) it was 24.5 ± 0.39%; in series [2] (setting [3]) it was 4.93 ± 0.13%; in series [2] (protein concentration 0.225 µM), 5.83 ± 0.8%.
As to “MKGFTATLFLWTLIFPSCSGGGGGKAWPTHVVCSDSGLEVLYQSCDPLQDFGFSVEKCSKQLKSNINIRFGIILREDIKELFLDLALMSQGSSVLNFSYPICEAALPKFSFCGRRKGEQIYYAGPVNNPEFTIPQGEYQVLLELYTEKRSTVACANATIMCS”, the “percentage of EdU-negative” value in series [1] (setting [3]) is 28.5 ± 0.69%; in series [1] (protein concentration 0.225 µM), 29.008 ± 0.011%; in series [2] (setting [3]), 4.8 ± 0.29%; in series [2] (protein concentration 0.225 µM) it was 6.1 ± 0.31%.
Regarding “MKGICSDAILVLATSMWMAFAIDFPLPMASERGQLDKTIVECLKNVNKCWFLSYIKPSEPICGSDQVTYSSDCHLCSKILFEGLNITKLYDGQCENS [P0C7L1]”, the “percentage of EdU-negative” value in series [1] (setting [3]) came to 23.2 ± 2.9%; in series [1] (protein concentration 0.225 µM), 26.1 ± 0.36%; in series [2] (setting [3]), 5.76 ± 1.6%; in series [2] (protein concentration 0.225 µM) it was 7.03 ± 0.23%.
For “MKGILVAGITAVLVAAVESLSCVQCNSWEKSCVNSIASECPSHANTSCISSSASSSLETPVRLYQNMFCSAENCSEETHITAFTVHVSAEEHFHFVSQCCQGKECSNTSDALDPPLKNVSSNAECPACYESNGTSCHGKPWKCYEEEQCVFLVAELKNDIESKSLVLKGCSNVSNATCQFLSGENKTLGGVIFRKFECANVNSLTPTSAPTTSHNVGSKASLYLLALASLLLRGLLP [Q6UX82]”, the “percentage of EdU-negative” value came to 26.8 ± 1.8% in series [1] (setting [3]), 24 ± 2.7% in series [1] (protein concentration 0.225 µM), 4.63 ± 0.18% in series [2] (setting [3]) and 5.88 ± 0.78% in series [2] (protein concentration 0.225 µM).
As to “MKGLAAALLVLVCTMALCSCAQVGTNKELCCLVYTSWQIPQKFIVDYSETSPQCPKPGVILLTKRGRQICADPNKKWVQKYISDLKLNA”, the “percentage of EdU-negative” value in series [1] (setting [6]) stood at 26.2 ± 1.5%; in series [1] (setting [7]), 24.6 ± 2.4%; in series [2] (setting [6]) it was 5.34 ± 1.1%; in series [2] (setting [7]) it was 5.89 ± 1.1%.
For the sequence “MKGSIFTLFLFSVLFAISEVRSKESVRLCGLEYIRTVIYICASSRWRRHQEGIPQAQQAETGNSFQLPHKREFSEENPAQNLPKVDASGEDRLWGGQMPTEELWKSKKHSVMSRQDLQTLCCTDGCSMTDLSALC [Q9Y5Q6]”, the “percentage of EdU-negative” value in series [1] (setting [3]) stood at 25.5 ± 2.3%; in series [1] (protein concentration 0.225 µM), 27.6 ± 3%; in series [2] (setting [3]) it was 5.011 ± 0.042%; in series [2] (protein concentration 0.225 µM) it was 4.97 ± 0.86%.
Turning to “MKGWGWLALLLGALLGTAWARRSQDLHCGACRALVDELEWEIAQVDPKKTIQMGSFRINPDGSQSVVEVPYARSEAHLTELLEEICDRMKEYGEQIDPSTHRKNYVRVVGRNGESSELDLQGIRIDSDISGTLKFACESIVEEYEDELIEFFSREADNVKDKLCSKRTDLCDHALHISHDEL [Q9Y2B0]”, the “percentage of EdU-negative” value in series [1] (setting [3]) worked out at 23.4 ± 3.1%; in series [1] (protein concentration 0.225 µM), 25.3 ± 1.3%; in series [2] (setting [3]), 5.14 ± 0.16%; in series [2] (protein concentration 0.225 µM) it was 6.74 ± 0.6%.
